Assay [1] concerns the target recombinant ADAM17 (A Disintegrin and Metalloproteinase 17) (UniProt P78536 215-671). As to the kind of experiment: FRET.
Assay [2] addresses T1, recombinant ADAM10 (A Disintegrin and Metalloproteinase 10) (UniProt O14672 20-748).
T1 chain: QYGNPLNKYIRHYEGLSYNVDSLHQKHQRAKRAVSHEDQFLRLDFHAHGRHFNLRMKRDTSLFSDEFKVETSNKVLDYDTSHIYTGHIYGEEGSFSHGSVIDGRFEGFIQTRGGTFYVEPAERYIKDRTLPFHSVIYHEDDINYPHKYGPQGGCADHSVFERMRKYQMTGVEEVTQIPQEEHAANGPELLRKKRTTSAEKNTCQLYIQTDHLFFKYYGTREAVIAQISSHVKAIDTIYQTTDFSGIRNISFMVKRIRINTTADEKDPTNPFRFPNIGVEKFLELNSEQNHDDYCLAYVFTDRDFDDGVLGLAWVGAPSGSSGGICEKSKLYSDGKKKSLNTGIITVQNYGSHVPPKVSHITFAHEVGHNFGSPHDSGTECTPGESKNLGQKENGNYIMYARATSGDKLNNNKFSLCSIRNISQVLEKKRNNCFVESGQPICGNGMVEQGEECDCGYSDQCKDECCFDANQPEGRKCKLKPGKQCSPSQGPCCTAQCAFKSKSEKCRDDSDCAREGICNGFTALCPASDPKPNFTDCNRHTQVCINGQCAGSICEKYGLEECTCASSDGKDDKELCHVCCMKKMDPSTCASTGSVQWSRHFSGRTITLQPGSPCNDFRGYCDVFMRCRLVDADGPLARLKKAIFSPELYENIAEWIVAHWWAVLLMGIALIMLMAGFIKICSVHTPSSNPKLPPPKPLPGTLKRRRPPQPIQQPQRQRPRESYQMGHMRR
As to the kind of experiment: FRET.

Chain of recombinant ADAM17 (A Disintegrin and Metalloproteinase 17) (P78536 215-671): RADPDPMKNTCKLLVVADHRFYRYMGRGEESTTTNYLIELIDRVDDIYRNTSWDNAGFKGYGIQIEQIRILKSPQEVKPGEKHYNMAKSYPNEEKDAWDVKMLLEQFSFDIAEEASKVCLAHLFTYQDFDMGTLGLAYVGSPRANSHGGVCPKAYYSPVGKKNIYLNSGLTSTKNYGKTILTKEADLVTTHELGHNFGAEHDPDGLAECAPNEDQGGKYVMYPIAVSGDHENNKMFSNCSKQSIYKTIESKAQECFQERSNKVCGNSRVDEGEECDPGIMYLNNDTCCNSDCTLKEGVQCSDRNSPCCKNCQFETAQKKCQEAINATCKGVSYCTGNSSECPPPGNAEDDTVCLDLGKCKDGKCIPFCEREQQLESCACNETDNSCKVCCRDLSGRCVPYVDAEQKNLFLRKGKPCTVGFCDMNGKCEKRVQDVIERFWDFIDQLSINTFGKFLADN

B1: recombinant His-tagged human ADAM12 prodomain (amino acids 29-206) (domain or fragment)
chain: RGVSLWNQGRADEVVSASVGSGDLWIPVKSFDSKNHPEVLNIRLQRESKELIINLERNEGLIASSFTETHYLQDGTDVSLARNYTVILGHCYYHGHVRGYSDSAVSLSTCSGLRGLIVFENESYVLEPMKSATNRYKLFPAKKLKSVRGSCGSHHNTPNLAAKNVFPPPSQTWARRHK
Usually Ki stands for a dissociation constant, usually derived from enzyme kinetics or from competition with a known ligand. For the molecule B1, the Ki in assay [1] and in assay [2] was greater than 14 µM throughout.
